Columns and labels:
[1] = test system: anti-NP mAb clone B1-8 (Abcam ab206523) (mouse); assay: FIDA; details: binding via NIP hapten; in solution; LNA/2'-OMe as N0; one 5' amino-C6 NIP hapten (carrier strand not stated); BLI: PBS, 0.02% Tween-20, 0.1% BSA, pH 7.4, HJ 0.2-20 nM, temperature not stated; all positive binding is through the NP/NIP hapten, not the nucleic acid
[2] = target: mouse IgG2a (mIgG2a) antibody (BALB/c IgG2a,κ Purified Mouse Anti-Mouse I-A[b], Clone AF6-120.1), conjugated to the S1-handle DNA with P3 docking site (mouse); assay: DNA-PAINT super-resolution microscopy on DNA origami (labeling efficiency); mIgG2a-DNA conjugate (60 nM) hybridised to DNA origami held by neutravidin on a biotin-PEG surface; κLC-Nb-7xR3 added in 0.5x buffer C + 1.5% BSA, >45 min at RT, excess washed off; two rounds of Exchange-PAINT (R3, P3); R3 clusters <19 nm from P3 clusters counted

CCGTCCTGAGCC / CACAGTGGACGG / GGCTCACCGATC / GATCGGACTGTG [HJ-1xNIP]
Kd [1]: 20 nM

anti-mouse kappa light chain nanobody (κLC-Nb) with Ser87 replaced by Cys87, conjugated to the DNA-PAINT docking strand 7xR3 (VHH)
Fab labeling density [2]: 80% | nanobodies bound per BCR (average) [2]: 1.5

From paper PMC9947222
